Measurements from US20100310542A1, “Pharmaceutical Compositions for treating wouds and related methods” (HEALOR LTD., priority 2007, published 2010).

System: keratin 1
Experiment: keratin 1 expression by Western blot in keratinocytes
Format: cell-based, mice
Conditions: visfatin 0.0001 μg/ml or L-alpha 100 ng/ml, 24 hours after calcium-induced differentiation
Text: Medium A and B are both EMEM eagle's minimal essential medium from Biological Industries (Israel) containing 8% CHELEX™ treated fetal bovine serum. CHELEX™ is a strong chelator which binds free Ca^2+ and Mg^2+ ions to prevent these ions from being bioavailable to the cultured cells.
Primary skin keratinocytes isolated from the tails of adult mice (7-10 months up to 2 years) were maintained in medium A (MEM) as described above. After 5 days in (medium A), the growth medium in half of the cultured plates was replaced with medium B (as described above)
Next visfatin or L-alpha were each individually added to cells cultured in medium A (FIG. 19A) and cells cultured in medium B (FIG. 19B) as indicated in FIG. 19. The final concentration in the culture medium of visfatin was 0.0001 μg/ml visfatin. The final concentration in the culture medium of L-alpha was 100 ng/ml.
Cell differentiation was induced by elevating calcium from 0.05 mM to 0.12 mM as described above. Twenty-four (24) hours after differentiation cells were harvested and Western Blot analysis was performed. […] Keratin 1 expression was then quantified using standard densitometric methods […]
Cell differentiation was then induced by elevating calcium levels in the culture medium from 0.05 mM to 0.12 mM. […] Expression was assessed using standard Western blotting and densitometry techniques.

B1: visfatin: murine visfatin (ALEXIS), adipocytokine that functions as an insulin analog (protein, UniProt Q99KQ4 1-491, looked up)
Nicotinamide …: MNAAAEAEFNILLATDSYKVTHYKQYPPNTSKVYSYFECREKKTENSKVRKVKYEETVFYGLQYILNKYLKGKVVTKEKIQEAKEVYREHFQDDVFNERGWNYILEKYDGHLPIEVKAVPEGSVIPRGNVLFTVENTDPECYWLTNWIETILVQSWYPITVATNSREQKKILAKYLLETSGNLDGLEYKLHDFGYRGVSSQETAGIGASAHLVNFKGTDTVAGIALIKKYYGTKDPVPGYSVPAAEHSTITAWGKDHEKDAFEHIVTQFSSVPVSVVSDSYDIYNACEKIWGEDLRHLIVSRSTEAPLIIRPDSGNPLDTVLKVLDILGKKFPVTENSKGYKLLPPYLRVIQGDGVDINTLQEIVEGMKQKKWSIENVSFGSGGALLQKLTRDLLNCSFKCSYVVTNGLGVNVFKDPVADPNKRSKKGRLSLHRTPAGNFVTLEEGKGDLEEYGHDLLHTVFKNGKVTKSYSFDEVRKNAQLNIEQDVAPH
- expression of keratin 1 (medium A (no KCl)): decreased relative to the control sample
- expression of keratin 1 (medium B (KCl 0.4 mg/ml)): not significantly altered
